# PMC5802732, “A chiral selectivity relaxed paralog of DTD for proofreading tRNA mischarging in Animalia” (Nature Communications, 2018)
# B1: Animalia-specific tRNA deacylase from Mus musculus (enzyme)
# chain: MADGGRVAQARALLQQCLHARLQVRPADGDAAAQWVEIRRGLVIYVCFFKGADTDLLPKMVNTLLNVKLSETETGKHVSILDLPGDVLIIPQATLGGRVKGRSMQYHSNSGKEEGSELYSQFVSLCEKAVANNTKSVEAGVAVAHGTYGNRQVLKLDTNGPYTHLIEF
# notes: ATD (Animalia-specific tRNA deacylase, annotated in databases as probable DTD2) from Mus musculus; un-tagged protein used for crystallisation; gene PCR-amplified from cDNA into pET-28b; Homodimer in the crystal (two monomers per asymmetric unit, 325 residues modelled); also called MmATD; ATD; source: E. coli Rosetta(DE3), purified (cation exchange chromatography, SEC)
# Molecular target: the molecule itself
# Assay: crystal structure; un-tagged MmATD alone; sitting-drop vapor diffusion, reservoir 0.1 M Bicine (pH 8.0) and 15% PEG1500; 1.86 Å; two monomers per asymmetric unit
protein,measurement,value
B1,binding result,binds
